The values below are quoted from earlier work in PMC7042059.

The target of the data set is Pyruvate kinase M2 (Homo sapiens) (UniProt P14618). Particulars: cited from earlier work.

Sequence of Pyruvate kinase M2 (P14618 2-531): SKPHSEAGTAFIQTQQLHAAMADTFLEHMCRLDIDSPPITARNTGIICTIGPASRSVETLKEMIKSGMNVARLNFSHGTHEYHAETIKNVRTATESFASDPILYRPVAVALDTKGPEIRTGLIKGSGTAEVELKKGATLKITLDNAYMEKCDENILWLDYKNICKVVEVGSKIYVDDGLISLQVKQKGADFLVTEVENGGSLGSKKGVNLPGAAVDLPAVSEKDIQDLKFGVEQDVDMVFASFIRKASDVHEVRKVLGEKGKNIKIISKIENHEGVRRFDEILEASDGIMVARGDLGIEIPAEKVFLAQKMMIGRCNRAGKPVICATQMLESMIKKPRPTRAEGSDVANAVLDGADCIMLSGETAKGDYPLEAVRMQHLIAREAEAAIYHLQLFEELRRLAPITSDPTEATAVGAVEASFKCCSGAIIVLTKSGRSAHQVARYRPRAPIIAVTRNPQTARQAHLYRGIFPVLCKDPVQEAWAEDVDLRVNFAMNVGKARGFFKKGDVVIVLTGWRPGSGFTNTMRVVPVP

What is called Kd is the constant that tells how readily two partners part at equilibrium. “Pyruvate kinase M2 (from UniProt P14618)”: the Kd was 1 µM.
